Results taken from patent US6033845.

How the values were obtained:
[1] = molecular target: 7B-maltose binding protein fusion protein (Feline Infectious Peritonitis Virus (Applicant's field isolate)) [MBP: P0AEX9]; details: scale: colonies, mean less control, at 20 µg/ml 7B
[2] = molecular target: maltose binding protein (Escherichia coli (strain K12)) [MBP: P0AEX9]

With “white blood cells from a cat known to have clinical FIP (cat #88) (cells without a defined receptor)” the No. of Colonies (T-cell colony stimulation, two days) [1] was 31 and the No. of Colonies (T-cell colony stimulation, two days) (colonies, mean less control) [2] was -1.
